These results are taken from publication PMC10945505.

The target of assay [1] is F-FGF21FL (UniProt Q9NSA1). The assay is described as follows: BLI; Octet Red 96, 30°C, 1000 rpm; F-FGF21 proteins at 50 nM captured on AHC (anti-hIgG Fc capture) biosensors, βKlotho in running buffer at 0.2743-200 nM; global fit, 1:1 binding model, monovalent KD.
Assay [2] concerns the target F-FGF21∆N (UniProt Q9NSA1). Described as above.

Turning to “Human βKlotho (from UniProt Q86Z14 1-996) (receptor)”, in assay [1], the Kd came to 0.0101 µM, the koff amounted to 0.00124 s⁻¹ and the association rate constant (kon) is 122000 M⁻¹ s⁻¹. Also, in assay [2], the Kd is 0.0118 µM, the off-rate (koff) amounted to 0.00195 s⁻¹ and the kon is 166000 M⁻¹ s⁻¹.
